Experimental data reported in patent publication US11110171B2, “PD-1 related cancer therapy” (New York University, priority 2017, dated 2021).

Target: T1, SHP2PTP (the catalytic domain of SHP2) (Homo sapiens, UniProt Q06124)
T1 construct: purchased Abcam 42578 (SHP2 catalytic domain); 101112 (SAP)
T1 sequence (Q06124 247-517 limits assumed): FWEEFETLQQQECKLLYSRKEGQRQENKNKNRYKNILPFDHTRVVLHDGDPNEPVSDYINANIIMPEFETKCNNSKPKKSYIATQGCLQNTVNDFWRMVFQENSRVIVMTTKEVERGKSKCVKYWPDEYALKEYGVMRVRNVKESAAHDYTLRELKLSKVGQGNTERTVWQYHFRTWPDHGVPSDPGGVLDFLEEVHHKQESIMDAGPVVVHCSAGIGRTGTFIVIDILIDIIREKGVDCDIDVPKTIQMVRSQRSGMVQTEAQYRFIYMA
Test: Co-affinity enrichment of His-tagged SAP and GST-tagged SHP2PTP
Assay type: binding
Details: recombinant proteins in the absence of T cell lysate
Protocol: FIG. 3. SAP is indirectly associated with PD-1. (ai) Pervanadate treated Jurkat T cells were transiently transfected with GFP-tagged PD-1 or GFP alone; Whole cell lysates (WCL) were immunoprecipitated with an anti-GFP antibody (IP: GFP), and samples were analyzed by immunoblotting. (aii) Densitometry values of data shown in ai. (b) Jurkat T cells were transfected with plasmids directing expression of the indicated fluorescent proteins and after 24 hours cells were stimulated with anti-CD3 antibodies and recombinant PDL2, followed by live-imaging. Bar, 10 μm. […] (di) Jurkat T cells were transfected with different versions of GFP-tagged PD-1, as indicated, followed by treatment with pervanadate; Whole-cell lysates (Input) were immunoprecipitated with an anti-GFP antibody (IP: GFP), and samples were analyzed by immunoblotting. […] (ei) 293T cells were transfected with plasmid directing expression of GFP-SAP or a control GFP plasmid, followed by treatment with pervanadate; Lysates were pulled-down with the GST-tagged PD-1 and samples were analyzed by immunoblotting. […] (gi) SHP2 KD and scrambled control Jurkat T cells were transfected with GFP-tagged PD-1, followed by treatment with pervanadate; Lysates were immunoprecipitated with an anti-GFP antibody (IP: GFP), and samples were analyzed by immunoblotting. […] Samples were analyzed by immunoblot. […]

direct interaction of SAP with SHP2 catalytic domain: lack of direct interaction
B1: SAP: Recombinant human SAP (His tagged), signaling lymphocytic activation molecule-associated protein, purchased from Abcam (protein, UniProt O60880 1-128, looked up)
SH2 domain-containing protein …: MDAVAVYHGKISRETGEKLLLATGLDGSYLLRDSESVPGVYCLCVLYHGYIYTYRVSQTETGSWSAETAPGVHKRYFRKIKNLISAFQKPDQGIVIPLQYPVEKKSSARSTQGTTGIREDPDVCLKAP
modifications: His tag
